This note sets out measurements from paper doi:10.1101/2020.10.14.337444.

The Ki is the equilibrium dissociation constant of an inhibitor or competing ligand from its target. Low values mean higher affinity, high ones lower affinity.

The target of one data set is ENO1 wt (Homo sapiens, UniProt P06733 1-434). The experiment in a line: competition EMSA. A general note: A gel shift assay detects complexes by their altered migration in electrophoresis.
A further data set deals with ENO1down (Homo sapiens, UniProt P06733 1-434, K343A). Briefly: competition EMSA.
Chain of ENO1down (P06733 whole entry K343A): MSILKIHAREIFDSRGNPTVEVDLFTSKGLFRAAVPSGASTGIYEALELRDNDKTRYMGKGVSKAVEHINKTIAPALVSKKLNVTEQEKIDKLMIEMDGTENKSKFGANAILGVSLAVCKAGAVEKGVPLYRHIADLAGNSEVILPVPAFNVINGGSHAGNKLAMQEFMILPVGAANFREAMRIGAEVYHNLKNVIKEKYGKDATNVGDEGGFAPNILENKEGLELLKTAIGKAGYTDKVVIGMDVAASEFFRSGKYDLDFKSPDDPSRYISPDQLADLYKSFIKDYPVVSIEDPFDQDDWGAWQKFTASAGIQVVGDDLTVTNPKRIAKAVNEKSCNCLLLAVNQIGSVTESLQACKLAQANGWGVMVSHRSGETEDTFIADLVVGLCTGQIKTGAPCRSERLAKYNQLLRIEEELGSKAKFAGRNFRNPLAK

Chain of ENO1 wt (P06733 whole entry): as the sequence (P06733 whole entry K343A) above, with A343K counted along it

For CCUCUUUUAUAAAAUAACCCGGUGAAGCAGCCGAG (ssRNA) [PABPC1 target 35-mer], the Ki with ENO1 wt came to 27 ± 19 nM; with ENO1down, 224 ± 12 nM.

For the molecule GGCCCCCAGCCCCGGCACUCGCUCUCCUCCUCUCA (ssRNA) [PABPC1 control 35-mer], the Ki in the data set with ENO1 wt was 2587 ± 9 nM; with ENO1down, 3261 ± 12 nM.
